Among the data in patent US20040191821 are activity values, retold here.

The target of this data set is MuA transposase (residues 77-663) (Bacteriophage Mu) (UniProt P07636). Particulars: 91/92 nt products; mismatch at center of 5 bp target; 10 mM MgCl2, 30 C; scale: % of strand transfer products at mismatch.
Chain of MuA transposase (residues 77-663) (Bacteriophage Mu) (P07636 77-663): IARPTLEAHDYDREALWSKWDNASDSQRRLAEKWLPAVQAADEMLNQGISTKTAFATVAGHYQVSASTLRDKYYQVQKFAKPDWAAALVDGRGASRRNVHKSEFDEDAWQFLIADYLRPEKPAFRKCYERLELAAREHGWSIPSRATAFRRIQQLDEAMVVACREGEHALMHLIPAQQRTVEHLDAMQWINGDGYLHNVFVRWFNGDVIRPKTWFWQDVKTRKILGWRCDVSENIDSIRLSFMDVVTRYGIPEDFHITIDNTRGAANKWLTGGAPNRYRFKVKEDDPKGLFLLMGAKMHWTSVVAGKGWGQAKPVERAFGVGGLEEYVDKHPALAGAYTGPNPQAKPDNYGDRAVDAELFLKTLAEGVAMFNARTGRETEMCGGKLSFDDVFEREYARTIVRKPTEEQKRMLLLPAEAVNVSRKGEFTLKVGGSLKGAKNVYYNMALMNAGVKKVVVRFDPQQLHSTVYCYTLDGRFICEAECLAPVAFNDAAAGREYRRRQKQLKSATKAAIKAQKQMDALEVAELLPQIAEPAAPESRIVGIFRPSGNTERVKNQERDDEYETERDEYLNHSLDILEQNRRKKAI

In turn, “CGTTCATTAGCACAATCACAGAAGACTAGAATACAACCGCACATAAGATCAGAAGTTAACTAGCACTAGTACTTGC (double strand) [single mismatch target 76 bp]” had an activity of 90.
